B1: Beta-adrenergic receptor kinase 1 (Homo sapiens), P25098 (parent)
chain: MADLEAVLADVSYLMAMEKSKATPAARASKKILLPEPSIRSVMQKYLEDRGEVTFEKIFSQKLGYLLFRDFCLNHLEEARPLVEFYEEIKKYEKLETEEERVARSREIFDSYIMKELLACSHPFSKSATEHVQGHLGKKQVPPDLFQPYIEEICQNLRGDVFQKFIESDKFTRFCQWKNVELNIHLTMNDFSVHRIIGRGGFGEVYGCRKADTGKMYAMKCLDKKRIKMKQGETLALNERIMLSLVSTGDCPFIVCMSYAFHTPDKLSFILDLMNGGDLHYHLSQHGVFSEADMRFYAAEIILGLEHMHNRFVVYRDLKPANILLDEHGHVRISDLGLACDFSKKKPHASVGTHGYMAPEVLQKGVAYDSSADWFSLGCMLFKLLRGHSPFRQHKTKDKHEIDRMTLTMAVELPDSFSPELRSLLEGLLQRDVNRRLGCLGRGAQEVKESPFFRSLDWQMVFLQKYPPPLIPPRGEVNAADAFDIGSFDEEDTKGIKLLDSDQELYRNFPLTISERWQQEVAETVFDTINAETDRLEARKKAKNKQLGHEEDYALGKDCIMHGYMSKMGNPFLTQWQRRYFYLFPNRLEWRGEGEAPQSLLTMEEIQSVEETQIKERKCLLLKIRGGKQFILQCDSDPELVQWKKELRDAYREAQQLVQRVPKMKNKPRSPVVELSKVPLVQRGSANGL

Variants of: B1
Settings: with ubc_human UBC

Effect of a mutation on the interaction, decreasing interaction:
K30R
K31R
K19R
